Patent US10676527B2, “Methods and compositions for modulation of blood-neural barrier” (Ludwig Institute for Cancer Research Ltd, priority 2006, dated 2020)

How the values were obtained:
BBB = assay: Evans Blue extravasation (BBB opening) after intraventricular injection; format: in vivo; conditions: C57BL6 mice, 2 μl intraventricular, 3 μM, 1 hour after injection
Experimental: (§1) Wild type C57BL6 mice (10 Week old) were injected intraventricularly into the dorsal third ventricle with 2 μl of PBS, active PDGF-AA, PDGF-BB (both from Preprotech Inc.) and PDGF-CC (see below) (3 μM). Evans Blue was given intravenously immediately after the injection. One hour after the injection, the animals were perfused with PBS and the brain tissue was removed and processed for Evans Blue extravasation.
as §1, with “of either” for “of”, “PBS, wild type murine tPA (3 μM),” for “PBS,”, “active” for “active PDGF-AA, PDGF-BB (both from Preprotech Inc.) and”, “(3 μM), or wild type murine tPA (3 μM) plus active PDGF-CC” for “(see below)”
Wt C57BL6 mice (10 Week old) were injected intraventricularly with 3 μl of either PBS, wild type murine tPA (3 μM), wild type murine tPA (3 μM) with rabbit anti-PDGF-CC (150 μg/ml). Evans Blue was given intravenously immediately after the injection. One hour after the injection, the animals were perfused with PBS and the brain tissue was removed and processed for Evans Blue extravasation.

cerebral vessels = assay: electron microscopy of cerebral vessels after intraventricular injection (edema); format: in vivo; conditions: mice, 2 μL at 1 μM intraventricular, 1 hour after injection, cortex
Experimental: Electron microscopy of vessels in the brain from mice treated by intraventricular injection 1 hour prior to analysis. Panel A, PBS; panel B, tPA (2 μL at a concentration of a 1 μM); panels C and D PDGF-CC (3 μL at a concentration of a 1 μM). Panels B-D show arterioles surrounded by fluid-filled spaces indicative of developing edema. The approximate magnification is indicated on each panel.
Specifically, tPA or active PDGF-CC (2 μL each at a concentration a 1 μM) were injected intraventricularly into mice, and morphological analysis of the cerebrovascular structure was performed. PBS was used as control. […] FIGS. 5B-D show arterioles surrounded by fluid-filled spaces indicative of developing edema. The approximate magnification is indicated on each panel.

Molecule	vascular permeability / opening of the BBB (Evans Blue extravasation) (BBB; Example 1, FIG. 1)	edema formation around cerebral vessels (transmission electron micrographs) (cerebral vessels)	opening of the BBB (Evans Blue extravasation) (BBB; Example 3, FIG. 3)
PDGF-BB: active platelet-derived growth factor BB dimer (from Preprotech Inc.) (protein, UniProt P01127 82-190, looked up) Platelet-derived growth …: SLGSLTIAEPAMIAECKTRTEVFEISRRLIDRTNANFLVWPPCVEVQRCSGCCNNRNVQCRPTQVQLRPVQVRKIEIVRKKPIFKKATVTLEDHLACKCETVAAARPVT	induce increased vascular permeability	–	–
tPA: wild type murine tissue-type plasminogen activator, serine protease thrombolytic agent (protein, UniProt P11214 33-559, looked up) Tissue-type plasminogen …: SYRATCRDEPTQTTYQQHQSWLRPMLRSSRVEYCRCNSGLVQCHSVPVRSCSEPRCFNGGTCQQALYFSDFVCQCPDGFVGKRCDIDTRATCFEEQGITYRGTWSTAESGAECINWNSSVLSLKPYNARRPNAIKLGLGNHNYCRNPDRDLKPWCYVFKAGKYTTEFCSTPACPKGKSEDCYVGKGVTYRGTHSLTTSQASCLPWNSIVLMGKSYTAWRTNSQALGLGRHNYCRNPDGDARPWCHVMKDRKLTWEYCDMSPCSTCGLRQYKRPQFRIKGGLYTDITSHPWQAAIFVKNKRSPGERFLCGGVLISSCWVLSAAHCFLERFPPNHLKVVLGRTYRVVPGEEEQTFEIEKYIVHEEFDDDTYDNDIALLQLRSQSKQCAQESSSVGTACLPDPNLQLPDWTECELSGYGKHEASSPFFSDRLKEAHVRLYPSSRCTSQHLFNKTVTNNMLCAGDTRSGGNQDLHDACQGDSGGPLVCMINKQMTLTGIISWGLGCGQKDVPGVYTKVTNYLDWIHDNMKQ	–	induce areas of fluid accumulation surrounding the vessels	potent inducers of opening of the BBB
